PMC11059233

Assays:
[1] = biological target: HLA-B*07:02 expressed in C1R cells (C1R.B*07:02) (human | human (endogenous in C1R))
[2] = biological target: HLA-B*35:01 expressed in C1R cells (C1R.B*35:01) (human | human (endogenous in C1R))
[3] = biological target: HLA-B*08:01 expressed in C1R cells (C1R.B*08:01) (human | human (endogenous in C1R))

Substance | IFN-γ+TNF+ CD8+ T cells (expanded with pool H) after restimulation with peptide-pulsed C1R.B*07:02; donors responding [1] | IFN-γ+TNF+ CD8+ T cells (expanded with pool J) after restimulation with peptide-pulsed C1R.B*35:01; donors responding [2] | IFN-γ+TNF+ CD8+ T cells (expanded with pool I) after restimulation with peptide-pulsed C1R.B*08:01; donors responding [3]
influenza B virus HA_(255-263) peptide | 2 of 10 donors | – | –
influenza B virus NS1_(260-268) peptide | – | 5 of 6 donors | –
influenza B virus NP_(30-38) peptide | 7 of 10 donors | – | 5 of 9 donors
influenza B virus HA_(231-239) peptide | – | 3 of 6 donors | –
influenza B virus NP_(479-487) peptide | – | – | 4 of 9 donors
influenza B virus NP_(233-244) peptide | 9 of 10 donors | – | –
influenza B virus NP_(92-99) peptide | – | – | 6 of 9 donors
influenza B virus NS1_(196-206) peptide | 6 of 10 donors | – | –
